Experimental data: patent publication US20200330548A1 (SYNERGY PHARMACEUTICALS, published 2020)
Bridge positions count the residues as written; N and C are the ends. Square brackets hold non-standard residues; d marks the D form. Ends that are not written are not given here.

Assays:
[1] = molecular target: guanylate cyclase-C (GC-C) on T84 cells (human, UniProt P25092 24-1073); assay: cell-based or functional assay
[2] = molecular target: T1, guanylate cyclase-C (GC-C) on rat jejunum tissue (rat, UniProt P23897 23-1072); assay: cell-based or functional assay
T1 sequence (looked up): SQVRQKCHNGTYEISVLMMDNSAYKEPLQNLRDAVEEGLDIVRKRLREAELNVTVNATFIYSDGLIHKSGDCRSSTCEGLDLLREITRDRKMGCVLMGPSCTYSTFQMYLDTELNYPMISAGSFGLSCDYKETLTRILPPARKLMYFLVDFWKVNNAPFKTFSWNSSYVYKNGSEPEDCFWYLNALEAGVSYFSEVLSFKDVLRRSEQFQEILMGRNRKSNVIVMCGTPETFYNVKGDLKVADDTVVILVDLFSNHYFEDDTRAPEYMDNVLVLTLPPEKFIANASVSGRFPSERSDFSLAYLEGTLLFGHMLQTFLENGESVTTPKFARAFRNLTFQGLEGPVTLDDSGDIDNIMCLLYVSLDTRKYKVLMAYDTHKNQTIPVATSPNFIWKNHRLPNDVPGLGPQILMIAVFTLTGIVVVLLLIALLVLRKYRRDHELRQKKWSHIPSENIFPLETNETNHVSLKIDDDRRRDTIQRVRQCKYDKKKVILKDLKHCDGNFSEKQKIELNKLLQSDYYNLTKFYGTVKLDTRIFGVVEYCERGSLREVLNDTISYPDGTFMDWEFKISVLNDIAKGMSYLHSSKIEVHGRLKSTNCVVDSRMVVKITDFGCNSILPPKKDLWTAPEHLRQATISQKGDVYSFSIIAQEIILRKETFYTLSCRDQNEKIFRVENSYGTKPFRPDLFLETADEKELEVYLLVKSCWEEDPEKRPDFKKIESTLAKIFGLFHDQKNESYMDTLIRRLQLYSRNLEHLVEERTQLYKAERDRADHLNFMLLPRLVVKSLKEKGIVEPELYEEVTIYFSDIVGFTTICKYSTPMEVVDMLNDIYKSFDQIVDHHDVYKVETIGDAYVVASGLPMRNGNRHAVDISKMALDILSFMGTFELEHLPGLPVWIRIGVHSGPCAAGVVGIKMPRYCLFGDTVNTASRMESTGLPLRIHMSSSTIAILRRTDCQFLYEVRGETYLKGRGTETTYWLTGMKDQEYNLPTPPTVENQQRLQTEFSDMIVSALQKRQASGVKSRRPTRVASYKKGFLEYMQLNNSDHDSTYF

Sequence of guanylate cyclase-C (GC-C) on T84 cells (P25092 24-1073): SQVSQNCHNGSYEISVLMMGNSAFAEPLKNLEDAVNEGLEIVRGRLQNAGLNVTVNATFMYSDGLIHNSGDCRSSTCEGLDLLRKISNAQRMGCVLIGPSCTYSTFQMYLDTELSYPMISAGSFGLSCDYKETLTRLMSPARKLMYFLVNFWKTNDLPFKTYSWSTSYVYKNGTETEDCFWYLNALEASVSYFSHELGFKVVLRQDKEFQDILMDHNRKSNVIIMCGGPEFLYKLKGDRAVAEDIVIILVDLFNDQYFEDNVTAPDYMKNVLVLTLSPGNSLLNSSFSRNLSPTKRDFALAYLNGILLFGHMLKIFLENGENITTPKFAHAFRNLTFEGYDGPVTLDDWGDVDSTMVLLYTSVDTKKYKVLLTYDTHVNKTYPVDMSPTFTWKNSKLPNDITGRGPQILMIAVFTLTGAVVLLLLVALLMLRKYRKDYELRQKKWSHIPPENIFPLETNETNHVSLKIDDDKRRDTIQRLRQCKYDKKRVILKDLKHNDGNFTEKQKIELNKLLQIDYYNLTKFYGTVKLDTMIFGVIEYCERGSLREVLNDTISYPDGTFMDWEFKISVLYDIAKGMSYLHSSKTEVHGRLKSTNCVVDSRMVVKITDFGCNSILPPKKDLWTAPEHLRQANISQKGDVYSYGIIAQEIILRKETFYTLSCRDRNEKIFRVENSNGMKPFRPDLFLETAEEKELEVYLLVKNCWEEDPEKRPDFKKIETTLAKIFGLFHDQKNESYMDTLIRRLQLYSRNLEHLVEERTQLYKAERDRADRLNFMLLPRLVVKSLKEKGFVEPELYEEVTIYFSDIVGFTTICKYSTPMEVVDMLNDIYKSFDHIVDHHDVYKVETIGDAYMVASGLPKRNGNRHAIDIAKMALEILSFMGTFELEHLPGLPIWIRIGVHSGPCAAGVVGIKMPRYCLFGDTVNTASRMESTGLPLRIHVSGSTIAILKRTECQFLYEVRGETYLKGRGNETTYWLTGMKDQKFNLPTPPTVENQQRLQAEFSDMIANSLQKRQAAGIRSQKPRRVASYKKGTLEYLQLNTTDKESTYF

B1: SP-333 (peptide)
peptide: [dN]DECELCVNVACTGC[dL]
modifications: disulfide 4-12, 7-15
For B1, the “short-circuit current (Isc, chloride current) across T84 cells monolayer, Ussing chamber; EC50” value [1] was 169 nM and the “short-circuit current (Isc, chloride current) across rat jejunum tissue, Ussing chamber; EC50” value [2] was 299 nM.
